These are literature values, as cited in publication PMC5837126.

What is called Kd is the constant that tells how readily two partners part at equilibrium.

The data set has as its target IL-2Rβγc (intermediate-affinity IL-2R) (Homo sapiens) (UniProt P14784).
Sequence of UniProt P14784 (P14784 27-240, chain 1 of 2): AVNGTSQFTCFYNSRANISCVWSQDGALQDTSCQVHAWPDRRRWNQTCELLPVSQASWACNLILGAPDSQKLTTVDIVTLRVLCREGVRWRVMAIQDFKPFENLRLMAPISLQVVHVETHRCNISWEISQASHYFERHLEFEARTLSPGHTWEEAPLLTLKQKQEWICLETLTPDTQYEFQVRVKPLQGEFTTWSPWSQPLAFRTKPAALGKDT
Sequence of UniProt P14784 (P31785 23-262, chain 2 of 2, further chain): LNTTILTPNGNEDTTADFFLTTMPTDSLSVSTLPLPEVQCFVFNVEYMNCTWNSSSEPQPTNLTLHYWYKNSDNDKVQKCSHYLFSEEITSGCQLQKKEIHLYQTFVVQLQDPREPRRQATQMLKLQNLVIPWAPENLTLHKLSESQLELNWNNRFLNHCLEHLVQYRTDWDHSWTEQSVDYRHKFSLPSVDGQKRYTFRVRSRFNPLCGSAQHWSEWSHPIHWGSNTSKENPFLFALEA

For the substance IL-2 (from UniProt P60568), the Kd was 1 nM.
